According to patent publication US6942981:
Ends that are not written are not given here. * marks the point of attachment. Biotin = O=C1N[C@H]2[C@H](CS[C@H]2CCCCC(=O)*)N1

Target: GST-DLG1 PDZ domains 1-2 fusion protein (human) (UniProt Q12959)
Test: G assay titration of biotinylated peptide on immobilized GST-PDZ, saturation fit (apparent affinity)

Binder | Kd
Biotin-ISGTPTSTMVHGMTSSSSVV [CLASP-2 C-terminal peptide AA2L] | 21 µM
Biotin-KDITSDSENSNFRNEIQSLV [CD95 (Apo-1/Fas) C-terminal peptide AA13L] | 54 µM
